Reference: the supplement of paper PMC10567573
± gives the standard deviation.

Assay: protein stability index of a GFP-peptide fusion (GPS, HEK-293T) (PSI 1-6); higher = more stable
Settings: c terminus: a fixed tail appended
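Further: 24-mer peptide tiles fused after GFP, lentivirally expressed, FACS-sorted into six equal bins by GFP/DsRed ratio, decoded by Illumina sequencing, PSI is the read-weighted mean bin number.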

Row | Sequence | protein stability index (treatment: DMSO) | protein stability index (treatment: MLN4924 1 uM, 8 h)
1 | QGRKIAEVCCTSIVYATEKKQTKV [KCTD13] | 3.39 ± 0.15 | 3.61 ± 0.28
2 | QPLSPASSSYSVSSPRSVDSYSST [ATF6] | 4.38 ± 0.22 | 4.59 ± 0.28
3 | NMDPAGLDDEDDTSIGMPSLMYRS [RETREG3] | 4.87 ± 0.15 | 4.91 ± 0.1
4 | GSSIPWNHLPDPEIFRQRFRQFGY [ZNF24] | 2.49 ± 0.25 | 2.66 ± 0.14
5 | DAGEESRVQVLKNEVRRGSPVLLG [TIAF1] | 4.33 ± 0.092 | 4.55 ± 0.24
6 | VPQALSATTYKHGVLTRKTHADMD [PSD2] | 4.47 ± 0.18 | 4.56 ± 0.12
7 | ALVGCVISDNPERYSTNLSNHVDD [EDNRA] | 3.94 ± 0.44 | 4.16 ± 0.16
8 | MEPGDIIGVAGNHWDGYSKGVNRK [FUT8] | 4.4 ± 0.22 | 4.6 ± 0.35
9 | GLKKLNLHEEEHVLLMAICIVSPD [VDR] | 3.13 ± 0.57 | 2.83 ± 0.54
10 | GEDCKLPPQPCATACKPVIRVPSV [KRT36] | 3.3 ± 0.22 | 3.23 ± 0.22
11 | PREQAARFCSEIKSSKYGEGHQAW [SEPHS2] | 3.36 ± 0.12 | 3.52 ± 0.19
12 | DGSLILVSASRDKTLRVWDLKDDG [WSB1] | 2.74 ± 0.31 | 3.03 ± 0.21
13 | FLLLYLFTLGTNAIIISTIVLDRA [OR10K2] | 3.39 ± 0.28 | 3.23 ± 0.53
14 | TRRLRLAHVGMELQLKQELAMLNA [SCARA5] | 2.65 ± 0.23 | 2.55 ± 0.22
15 | GRGLKSHAYIHSVQFSHHVFLNLH [USP39] | 2.84 ± 0.45 | 2.62 ± 0.65
16 | MEDSQETSPSSNNSSEELSSALHL [NECAB1] | 5.57 ± 0.18 | 5.55 ± 0.18
17 | FVLDENDNAPAVLHPRPDWEHSAP [PCDHGC5] | 3.33 ± 0.22 | 3.62 ± 0.31
18 | YDTFHTVADMMYFCQMLAVVETIN [HACD3] | 3.08 ± 0.35 | 3.17 ± 0.64
19 | ISESGGLNWKMTLCLLVAWSIVGM [SLC6A17] | 2.71 ± 0.28 | 2.83 ± 0.67
20 | IHIIDFGLAKEYIDPETKKHIPYR [CSNK1G3] | 2.1 ± 0.36 | 2.33 ± 0.17
21 | APFGRISDARVVKDMATGKSKGYG [TIA1] | 4.47 ± 0.17 | 4.35 ± 0.18
22 | FQMEKIEHGYENMNHFTVNLNREE [TRIM55] | 3.21 ± 0.47 | 3.57 ± 0.59

Row | Sequence | protein stability index (treatment: DMSO) | protein stability index (treatment: MLN4924 1 uM, 8 h)
23 | IGHFNTASGVGFILGPVVGGYLTE [MFSD9] | 2.38 ± 0.53 | 2.31 ± 0.39
24 | KEMSKVWNDLRPKLSCLFAGPHST [SNX8] | 2.63 ± 0.7 | 2.79 ± 0.59
25 | YVDSPALTNIWMARTCAKQNINAP [C22orf31] | 3 ± 0.59 | 2.36 ± 0.24
26 | NGNGKNGGLEHVPSSSSIHNGDME [BNIP3L] | 5.28 ± 0.2 | 5.28 ± 0.24
27 | TRWYRAPELLVGDTQYGSSVDIWA [CDKL4] | 1.97 ± 0.59 | 2.26 ± 0.39
28 | NDVKHHRWFRSVDWEAVPQRKLKP [PRKX] | 3.65 ± 0.19 | 3.6 ± 0.24
29 | KPENISLRNKLRELCVKLMFLHPV [SMG5] | 2.9 ± 0.52 | 3.06 ± 0.34
30 | LRLENNHCHIEESEHVLKKAHKYS [VPS39] | 2.87 ± 0.37 | 3.31 ± 0.45
31 | VLPEDRILREELQKQRLREILEQQ [ZNF277] | 4.63 ± 0.4 | 4.21 ± 0.41
32 | ANAHTYHINSISVNSDYETYMSAD [PPP2R2B] | 3.81 ± 0.24 | 3.8 ± 0.22
33 | GAAAQGQTQTVAAQAQALAAQAAA [PI4K2A] | 5.07 ± 0.21 | 4.95 ± 0.21
34 | SPASHVDVDLTIHGRHIDCPATWG [FOXJ1] | 3.14 ± 0.2 | 3.28 ± 0.19
35 | DIEDVFYKYGAIRDIDLKNRRGGP [SRSF1] | 3.32 ± 0.48 | 3.39 ± 0.17
36 | LQMKLEKLREKERKKEAKRKISSL [FAM50A] | 3.71 ± 0.45 | 3.98 ± 0.53
37 | DETTRSDISERPSVDDIESETGST [C2CD2L] | 5.68 ± 0.1 | 5.6 ± 0.32
38 | IQKNKLKLTREQEELEEALEVERQ [MNAT1] | 5.23 ± 0.31 | 5.24 ± 0.17
39 | MASSPIQPRKGGADWLGLKDEDLD [FBF1] | 5.12 ± 0.37 | 5.07 ± 0.26
40 | DHSEHLSGSSYRDALQRYGTSHGA [RBMY1A1] | 3.89 ± 0.12 | 4.37 ± 0.38
41 | PLRAVHINLEEKEKQIRSFLIEGP [PLEKHN1] | 3.7 ± 0.31 | 3.8 ± 0.2
42 | EDGSVELESQVQKDGVADSTVISS [C18orf25] | 5.5 ± 0.2 | 5.42 ± 0.28
43 | QKKDCVPLMKPHRPWADTCSSSGK [HESX1] | 3.49 ± 0.52 | 3.67 ± 0.53
44 | KEDASEFQILKYLFQIDVYDFMNS [MIA2] | 2.5 ± 0.65 | 2.76 ± 0.24
